Three molecules from article PMC4897640, “Functional diversity of family 3 β-glucosidases from thermophilic cellulolytic fungus Humicola insolens Y1” (Scientific Reports, 2016) can be followed below.

What is called Km is the concentration of substrate that gives half-maximal velocity. Usually Vmax stands for the top rate of the reaction or transport when substrate is in excess. A word on the kcat: it is the number of substrate molecules converted per active site and unit of time at saturation. The kcat/Km is the turnover number divided by the Michaelis constant.

Series [1] addresses T1, HiBgl3C (Mycothermus thermophilus, UniProt A0A191KCR0).
T1 construct: the same GenBank number is also printed for Hibgl3B
T1 sequence (A0A191KCR0 18-733): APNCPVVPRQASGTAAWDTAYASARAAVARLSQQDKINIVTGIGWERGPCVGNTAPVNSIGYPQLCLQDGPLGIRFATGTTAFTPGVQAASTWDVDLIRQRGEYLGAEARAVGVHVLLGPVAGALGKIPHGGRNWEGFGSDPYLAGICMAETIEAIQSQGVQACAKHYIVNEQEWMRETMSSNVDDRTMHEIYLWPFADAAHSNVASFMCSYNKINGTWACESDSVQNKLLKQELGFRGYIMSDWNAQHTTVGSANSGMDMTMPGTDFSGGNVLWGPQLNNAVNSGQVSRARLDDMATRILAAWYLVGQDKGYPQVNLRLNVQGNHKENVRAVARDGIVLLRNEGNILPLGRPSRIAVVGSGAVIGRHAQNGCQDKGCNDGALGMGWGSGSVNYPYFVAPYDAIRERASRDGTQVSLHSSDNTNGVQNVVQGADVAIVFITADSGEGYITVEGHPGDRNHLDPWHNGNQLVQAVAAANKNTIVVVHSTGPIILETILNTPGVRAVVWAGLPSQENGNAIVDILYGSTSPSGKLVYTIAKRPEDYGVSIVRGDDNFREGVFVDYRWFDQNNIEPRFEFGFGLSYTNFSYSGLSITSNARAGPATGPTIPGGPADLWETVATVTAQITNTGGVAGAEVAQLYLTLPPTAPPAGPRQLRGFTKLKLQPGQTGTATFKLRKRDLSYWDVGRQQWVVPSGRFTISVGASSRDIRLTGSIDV
The series can be described thus: pNPG hydrolysis, Dixon plot. In kind it is biochemical. The conditions noted are these: read-out: Ki (mM) / pNPG; substrate pNPG 0.75 and 1 mM, glucose 5-50 mM; product inhibition, mode not stated.

The target of series [2] is HiBgl3A (Mycothermus thermophilus, UniProt A0A191KCR1). The series can be described thus: pNPG hydrolysis, Dixon plot. In kind it is biochemical. The settings on record: read-out: Ki (mM) / pNPG; substrate pNPG 0.75 and 1 mM, glucose 5-50 mM; product inhibition, mode not stated.
Series [3] has as its target T2, HiBgl3B (Mycothermus thermophilus, UniProt A0A191KCR2).
T2 construct: GenBank printed as KT203372, same as Hibgl3C, so probably a misprint of KT203371
The series can be described thus: pNPG hydrolysis, Dixon plot. In kind it is biochemical. The settings on record: read-out: Ki (mM) / pNPG; substrate pNPG 0.75 and 1 mM, glucose 5-50 mM; product inhibition, mode not stated.

Substrate in series [4]: O=[N+]([O-])c1ccc(O[C@@H]2O[C@H](CO)[C@@H](O)[C@H](O)[C@H]2O)cc1
The series can be described thus: purified protein. The settings on record: 100 mM Na2HPO4-citric acid.

Setting [5] is: optimal conditions (pH 6.0, 50 °C), pH 6.0, 50.0 °C.

Sequence of HiBgl3A (A0A191KCR1 entry or part of it): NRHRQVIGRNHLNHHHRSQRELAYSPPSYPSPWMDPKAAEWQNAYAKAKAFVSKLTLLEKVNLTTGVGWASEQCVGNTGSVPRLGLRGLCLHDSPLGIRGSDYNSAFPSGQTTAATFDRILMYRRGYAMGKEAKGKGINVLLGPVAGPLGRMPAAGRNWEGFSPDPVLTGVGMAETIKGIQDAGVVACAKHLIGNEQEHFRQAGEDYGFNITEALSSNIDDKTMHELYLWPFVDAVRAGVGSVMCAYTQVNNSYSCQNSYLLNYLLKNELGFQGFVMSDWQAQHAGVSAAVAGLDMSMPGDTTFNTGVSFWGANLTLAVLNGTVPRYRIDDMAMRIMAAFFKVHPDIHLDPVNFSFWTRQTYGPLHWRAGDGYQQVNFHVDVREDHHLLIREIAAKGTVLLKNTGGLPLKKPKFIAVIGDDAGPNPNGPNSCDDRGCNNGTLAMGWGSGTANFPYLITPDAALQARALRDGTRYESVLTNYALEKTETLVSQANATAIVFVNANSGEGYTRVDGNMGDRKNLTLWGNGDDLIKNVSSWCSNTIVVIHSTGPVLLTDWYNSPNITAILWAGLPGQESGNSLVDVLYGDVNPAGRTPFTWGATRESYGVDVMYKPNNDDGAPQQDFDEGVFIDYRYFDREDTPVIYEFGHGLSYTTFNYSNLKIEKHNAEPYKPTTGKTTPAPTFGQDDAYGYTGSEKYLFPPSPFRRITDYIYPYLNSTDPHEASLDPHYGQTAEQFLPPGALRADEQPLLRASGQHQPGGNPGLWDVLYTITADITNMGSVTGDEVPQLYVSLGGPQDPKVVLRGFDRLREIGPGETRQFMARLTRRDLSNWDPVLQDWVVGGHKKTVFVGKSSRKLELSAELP

Take `OC[C@H]1OC(O)[C@H](O)[C@@H](O)[C@@H]1O` (some centres unmarked) [glucose]: the figures for the Ki in series [1], in series [2] and in series [3] were 37.1 mM, 25 mM and 55.2 mM, respectively.

B1: HiBgl3B (Mycothermus thermophilus) (protein)
chain: RVVEPRDPVPQGYHAASYYPAPHGGWVSSWREAYEKAYALVSQMTLAEKVNITSGVGIYMGPCVGNTGSVDRLGFPQLCLQDSALGVASADNVTAFPAGITTGATWDKQLMYARGVAIGKEFRGKGANIHLGPSVGPLGRKPLGGRNWEGFGSDPVLQGKAAALHIRGVQEQGIIATIKHLVGNEQEMYRMYHIFQEGYSANIDDRTLHELYLWPFAEAVRAGVGAAMTAYNAVNGSACSQNSYLINGILKDELGFQGLVMSDWLSHISGVGSALAGLDLNMPGDTNIPLFGNSLWQYELTRAVLNGSVPVDRLNDMATRVVATWYKFGQDKNHPRPNFSSNTRSRDGPLYPGALFSPSGQVNWFVNVQEDHYLVARQVAQDAITLLKNNDSLLPLDAGDLTGGKLSVFGTDAQVNPDGPNSCLARACNKGTLGMGWGSGIADYPYMDDPIGAIRKRVPDVKFYNTDSFPWFFGTPENDEVAMVFISSDSGENTLTVEGNHGDRDSAKLRAWHDGDKLVQKVAEKFKNVIVVVHTVGPLDLEPWIELPSVKAVLFAHLPGQEAGESLTNVLFGDVSPSGHLPYSITRKASDLPDSIANLKGFTWGQVQDTYSEGLYIDYRYLQKHSIQPRFAFGHGLSYTNFSFTNATIRAITTPLSVTPPAPPATRPASVVAKYSTDIPPASEAYEPAGFSRIWRYLYPWLSKSDADAAHAIGTSKSKTYPYPPGYSTVQRASFPPAGGGEGGNPALWDVAYEVTVRVTNTGKRPGKASAQLYLQFPEGIEYDTPVLQLRDFEKTKELQPGESQELKLTLTRKDVSVWDVRRQNWVVPTAIDDKKGFTAWVGEASDKLKVACYTGEGRCVEGAKQPV
Take B1: in series [4] (setting [5]), the Km came to 1510 µM, the Vmax was 25.5 µmol/min/mg, the kcat amounted to 40.4 s⁻¹ and the kcat/Km amounted to 26800 M⁻¹ s⁻¹.

B2: HiBgl3B (Mycothermus thermophilus; I81W) (protein)
chain: RVVEPRDPVPQGYHAASYYPAPHGGWVSSWREAYEKAYALVSQMTLAEKVNITSGVGWYMGPCVGNTGSVDRLGFPQLCLQDSALGVASADNVTAFPAGITTGATWDKQLMYARGVAIGKEFRGKGANIHLGPSVGPLGRKPLGGRNWEGFGSDPVLQGKAAALHIRGVQEQGIIATIKHLVGNEQEMYRMYHIFQEGYSANIDDRTLHELYLWPFAEAVRAGVGAAMTAYNAVNGSACSQNSYLINGILKDELGFQGLVMSDWLSHISGVGSALAGLDLNMPGDTNIPLFGNSLWQYELTRAVLNGSVPVDRLNDMATRVVATWYKFGQDKNHPRPNFSSNTRSRDGPLYPGALFSPSGQVNWFVNVQEDHYLVARQVAQDAITLLKNNDSLLPLDAGDLTGGKLSVFGTDAQVNPDGPNSCLARACNKGTLGMGWGSGIADYPYMDDPIGAIRKRVPDVKFYNTDSFPWFFGTPENDEVAMVFISSDSGENTLTVEGNHGDRDSAKLRAWHDGDKLVQKVAEKFKNVIVVVHTVGPLDLEPWIELPSVKAVLFAHLPGQEAGESLTNVLFGDVSPSGHLPYSITRKASDLPDSIANLKGFTWGQVQDTYSEGLYIDYRYLQKHSIQPRFAFGHGLSYTNFSFTNATIRAITTPLSVTPPAPPATRPASVVAKYSTDIPPASEAYEPAGFSRIWRYLYPWLSKSDADAAHAIGTSKSKTYPYPPGYSTVQRASFPPAGGGEGGNPALWDVAYEVTVRVTNTGKRPGKASAQLYLQFPEGIEYDTPVLQLRDFEKTKELQPGESQELKLTLTRKDVSVWDVRRQNWVVPTAIDDKKGFTAWVGEASDKLKVACYTGEGRCVEGAKQPV
As for B2, in series [4] (optimal conditions), the Km is 1990 µM, the Vmax came to 2.03 µmol/min/mg, the kcat is 3.21 s⁻¹ and the kcat/Km was determined as 1610 M⁻¹ s⁻¹.
